Kd data for 1 substance are collected here from PMC9728937.

In the assay the target is FgSnt1^1-744-GST (Fusarium graminearum). The experiment in a line: ITC. As to conditions: enzyme.

A word on the Kd: it is the equilibrium constant for the complex coming apart. Lower therefore signals a tighter complex. As to Cpk1-HIS, the Kd came to 248 nM. This lies in the sub-micromolar range.
